According to US20210054047A1, “NOVEL ANTICANCER FUSION PROTEIN AND USE THEREOF” (KOREA INSTITUTE OF SCIENCE AND TECHNOLOGY, priority 2018, published 2021):
Each block holds one molecule with its values, some of them ahead of it.

Assays:
HT29 cells [1] = assay: Cell viability, CCK-8 assay, HT29; format: cell-based, human; settings: HT29, 250 nM (DOX 3.5 μg/ml), 24 hours
Method: (§1) HepG2, HT29, or MCF7 cells (1.5×10^4) were cultured in a 96-well plate for 1 day, after which DOX-TTPNs, DOX-FTNs, free DOX, empty TTPNs, or buffer was added to each well. After 24 hours, cell viability was measured using a CCK-8 assay (Dojindo Molecular Technologies) according to the manufacturer's instructions. For analysis of early apoptosis, HT29 cells in 6-18 well culture plate were treated with DOX-TTPNs, free DOX, empty TTPNs, or buffer for 24 hours. Thereafter, cells were incubated with Alexa Fluor 488-conjugated annexin V (Invitrogen) 20 for 15 minutes, then analyzed using an Accuri™ C6 flow cytometer (BD Biosciences) and FlowJo 21 v10 software.

HT29 cells [2] = assay: Annexin V early apoptosis flow cytometry, HT29; format: cell-based, human; settings: HT29, low concentrations, 24 hours
Method: as §1

[3] = test system: cleaved form of caspase-3; assay: Western blot of HT29 lysates: cleaved caspase-3; format: cell-based, human; settings: HT29, 50 nM, 24 hours
Method: (§2) After incubating HT29 cells with 50 nM DOX-TTPNs, DOX-FTNs, free DOX, or buffer for 24 hours, cells were lysed with radioimmunoprecipitation assay (RIPA) buffer (Cell Signaling Technology) and the concentration of proteins was measured using a DC protein assay kit (Bio-Rad). Equal amounts of proteins (30 μg) were resolved by SDS-PAGE and transferred to nitrocellulose membranes. After blocking with 5% skim milk in Tris-buffered saline containing 0.1% Tween-20 (TBST), membranes were incubated first with anti-Cl-PARP, anti-Cl-caspase-6, anti-cFLIP, anti-Bcl-xL, anti-XIAP, anti-Cl-caspase-3, or anti-GAPDH primary antibody (Cell Signaling Technology), and then with anti-mouse or anti-rabbit secondary antibodies (Sigma-Aldrich), as appropriate. Immunoreactive proteins were visualized using enhanced chemiluminescence (ECL) chemical reagents (Bio-Rad) and ChemiDoc (Bio-Rad), and were analyzed using ImageJ software.

PARP = assay: Western blot of HT29 lysates: PARP; format: cell-based, human; settings: HT29, 24 hours
Method: as §2

XIAP = assay: Western blot of HT29 lysates: XIAP; format: cell-based, human; settings: HT29, 24 hours
Method: as §2

DR5 [4] = assay: Western blot time course of DR5 levels in HT29; format: cell-based, human; settings: HT29, 4, 12 and 24 hours
HT29 tumor [5] = assay: Antitumor efficacy, HT29 xenograft; format: in vivo, mouse; settings: i.v. five times every 2 days, DOX-TTPNs 30 mg/kg, DOX 0.4 mg/kg, DOX-FTNs 15 mg/kg, empty TTPNs 30 mg/kg
HT29 tumor [6] = assay: TUNEL analysis of HT29 tumor tissue; format: in vivo, mouse; settings: HT29 tumor tissue at the end of the study
[7] = mice (Chatterjee et al.); cited from earlier work
[8] = target: TRAIL R1 (death receptor 4, DR4) on the surface of tumor cells (human, UniProt O00220 24-468); assay: cell-based or functional assay
[9] = target: TRAIL R2 (death receptor 5, DR5) on the surface of tumor cells (human, UniProt O14763 56-440); assay: cell-based or functional assay
DR4 = target: T1, DR4 (Homo sapiens, UniProt O00220); assay: SPR binding to immobilized DR4-Fc; settings: DR4-Fc immobilized, 25° C.
T1 construct: purchased R&D systems 347-DR-100
Method: (§3) Binding experiments of TTPN and mTRAIL to TRAIL receptors DR4 and DR5 were analyzed at 25° C. using a surface plasmon resonance apparatus (SR7500 DC, Reichert Inc., NY, USA). DR4 and DR5-fc chimeric proteins (R&D systems 347-DR-100, 631-T2-100) were immobilized on the surface of the Planar Protein A sensor chip (Reichert, 13206069) and the receptors were coated at a level of 300 to 500 resonance units. SPR kinetic titrations were performed by adding 250 μl of TTPN and mTRAIL with different concentrations in the range of 1.56 to 400 nM and 0.1 to 25.6 μM, respectively, increasing by four times. Each analyte was run at 50 μL/min using running and sample buffer (0.5 M Tris-HCl (pH 7.4), 150 mM NaCl, 0.005% Tween 20), and binding of the ligand to the receptor was performed and monitored in real time. For titration sensorgrams, a simple 1:1 Langmuir interaction model (A+B↔AB) was applied using the data analysis program Scrubber 2.0 (BioLogic Software, Australia, and KaleidaGraph Software, Australia) and CLAMP software.
(§4) The affinity KD was determined from the formula of KD=kd/ka. Results are based on representative sensorgrams obtained from saturation binding reactions averaged over at least three independent runs of SPR measurements (FIG. 31).

DR5 [10] = target: T2, DR5 (Homo sapiens, UniProt O14763); assay: SPR binding to immobilized DR5-Fc
T2 construct: purchased R&D systems 631-T2-100
Method: as §3, §4

[11] = In vitro stability (soluble protein in buffer over time); format: physicochemical
Method: The stability of TTPN, DOX-TTPN and mTRAIL was investigated by measuring changes of concentration in a suitable buffer solution. […] At predetermined times, aggregated proteins were collected at 13,000 rpm for 10 minutes, and the concentration of soluble DOX-TTPN and TTPN in the supernatant was measured using absorbance in UV280.

HepG2 cells [12] = assay: Cell viability, CCK-8 assay, HepG2; format: cell-based, human; settings: HepG2
Method: After culturing for 24 hours, cell viability was measured using a cell counting kit (CCK)-8 assay (Dojindo Molecular Technologies, Gaithersburg, Md.). The plate was then read with an absorbance microplate reader (Spectramax 340, Molecular Devices Corporation) at a wavelength of 450 nm and 50% effective by regression analysis using SigmaPlot software (Systat Software, Inc., San Jose, Calif.). The concentration value was calculated.

HepG2 cells [13] = assay: Annexin V/PI flow cytometry of apoptosis, HepG2; format: cell-based, human; settings: for surviving tumor cells (Annexin V/PI double negative): 24 hours
Method: FIG. 19 is a series of histograms representing flow cytometry analysis of TRAIL-mediated apoptosis of HepG2 cells as an analysis of in vitro TTPN-mediated apoptosis on TRAIL-sensitive-HepG2 cells. Cells were incubated for 24 hours in the presence of different concentrations of mTRAIL and TTPN and analyzed by Annexin V/PI double staining.
In addition, to investigate whether apoptosis induced by TTPN is induced by the pro-apoptosis pathway of tumor cells, fluorescence-activated cell sorting (FACS) using double staining of Annexin V/propidium iodide (PI) was performed. […] (FIG. 21).

HepG2 tumor [14] = assay: Antitumor efficacy, HepG2 xenograft; format: in vivo, mouse; settings: i.v. every 2 days, TTPN 23 mg/kg, mTRAIL 12 mg/kg
From the text: (§5) In the evaluation of the anti-tumor effect of the present invention, BALB/c nude male mice (6-7 weeks old) were used as an animal model. Particularly, HT29 cells (5×10^6) and HepG2 cells (5×10^6) were subcutaneously inoculated into the left dorsal flank of BALB/c nude mice, respectively. After a volume of tumors reached ˜80-100 mm^3, mice were randomly divided into the 14 following five treatment groups (6 mice/group); DOX-TTPNs, DOX-FTNs, free DOX, empty TTPNs, and buffer. Mice were intravenously injected five times, once every 2 days, and volume of tumors was determined as 1/2(Length×Width^2). Apoptotic cell death in tumor tissues was analyzed using TUNEL staining (In situ Cell Death Detection kit; Roche), and cells were stained with DAPI (4′,6-diamidino-2-phenylindole), as previously described (Kih et al., Biomaterials 180: 67-77, 2018). Apoptotic cells were visualized under a Nikon Eclipse Ti microscope (Nikon) and quantified as the number of TUNEL-positive cells per total number of cells using ImageJ software. After 21 days from injecting tumor cells, tumor tissues were excised from the experimental mice, and cryo-sections (3.5 μm) were fixed with 10% neutral buffered formalin and paraffin-embedded tissue blocks.
(§6) In addition, to investigate whether tumor growth inhibition by TTPN is induced by apoptosis-inducing activity on tumor cells, tumor tissues from the treated mice were analyzed. On the 15th day after the first injection, mice were euthanized, and apoptosis of tumor tissues was analyzed using terminal deoxynucleotidyl transferase dUTP nick end labeling (TUNEL) staining.

HepG2 tumor [15] = assay: TUNEL analysis of HepG2 tumor tissue; format: in vivo, mouse; settings: 15th day after first injection
From the text: as §5, with “After 21 days from injecting tumor cells, tumor tissues were excised from the experimental mice, and cryo-sections (3.5 μm) were fixed with 10% neutral buffered formalin and paraffin-embedded tissue blocks.” left out
as §6

[16] = within 21 days (Kih et al.); cited from earlier work
[17] = target: T3, DR4-Fc chimeric protein (R&D systems 347-DR-100) (UniProt O00220 24-239); assay: SPR, DR4-Fc captured on Protein A chip, 25° C., 1:1 Langmuir model
T3 construct: Bought (R&D systems 347-DR-100); Captured on a Protein A sensor chip; also called TRAIL R1; death receptor 4; Fc part of the bought chimera not given
Method: DR4 and DR5-fc chimeric proteins (R&D systems 347-DR-100, 631-T2-100) were immobilized on the surface of the Planar Protein A sensor chip (Reichert, 13206069) and the receptors were coated at a level of 300 to 500 resonance units. […] Each analyte was run at 50 μL/min using running and sample buffer (0.5 M Tris-HCl (pH 7.4), 150 mM NaCl, 0.005% Tween 20), and binding of the ligand to the receptor was performed and monitored in real time. For titration sensorgrams, a simple 1:1 Langmuir interaction model (A+B↔AB) was applied using the data analysis program Scrubber 2.0 (BioLogic Software, Australia, and KaleidaGraph Software, Australia) and CLAMP software.
The affinity KD was determined from the formula of KD=kd/ka.

Molecule: COc1cccc2c1C(=O)c1c(O)c3c(c(O)c1C2=O)C[C@@](O)(C(=O)CO)C[C@@H]3O[C@H]1C[C@H](N)[C@H](O)[C@H](C)O1 [free DOX, doxorubicin, reference compound]
cell death compared with controls (HT29 cells [1]): 36%
induction of early apoptosis (HT29 cells [2]): ineffective in inducing apoptosis
cleaved caspase-3 (and PARP) expression [3]: little change
increase in PARP relative to buffer-treated controls (defined as 1) (PARP): 811 fold
decrease in XIAP levels compared with buffer treatment (XIAP): 34 fold
DR5 expression levels over time (DR5 [4]): substantial increase in DR5 expression at 4 hours
decrease of tumor volumes (HT29 tumor [5]): no significant tumor-inhibition effect
TUNEL-positive tumor cells (HT29 tumor [6]): 0.07%
dose at which side effects can be exhibited [7]: greater than 1 mg/kg

ka (DR4): 8.68 (±7.12) · 10^2 M^−1 · S^−1
kd (DR4): 5.27 (±2.14) · 10^−5 s^−1
ka (DR5 [10]; 25° C.): 1.48 (±0.12) · 10^3 M^−1 · S^−1
kd (DR5 [10]; 25° C.): 3.87 (±1.13) · 10^−5 s^−1
Kd (DR5 [10]; KD=kd/ka): 25.4 nM
IC50 relative to TTPN (HepG2 cells [12]): 30 times
B1: monomeric TRAIL (mTRAIL) extracellular domain (ligand)
chain: MTSEETISTVQEKQQNISPLVRERGPQRVAAHITGTRGRSNTLSSPNSKNEKALGRKINSWESSRSGHSFLSNLHLRNGELVIHEKGFYYIYSQTYFRFQEEIKENTKNDKQMVQYIYKYTSYPDPILLMKSARNSCWSKDAEYGLYSIYQGGIFELKENDRIFVSVTNEHLIDMDHEASFFGAFLVG
notes: Expressed in E. coli from pET28a-mTRAIL and purified on Ni-NTA; a vector tag is not spelled out
IC50, cell viability of HepG2 cells (CCK-8, 24 hours) [8]: 405 nM
IC50, cell viability of HepG2 cells (CCK-8, 24 hours) [9]: 405 nM
stability in solution ([11]; 15 mg/mL in PBS buffer for 24 hours (FIG. 15)): precipitated and aggregated rapidly
amount in the soluble form, of the initial concentration ([11]; within 2 days, 10 mg/mL (FIG. 16)): 57%
surviving tumor cells (Annexin V/PI double negative) (HepG2 cells [13]; HepG2, 0.4 nM): 94.3%
surviving tumor cells (Annexin V/PI double negative) (HepG2 cells [13]; HepG2, 100 nM): 82.9%
concentration at which Annexin V-positive cells were detected (HepG2 cells [13]; HepG2, 24 hours (FIG. 20)): 25 nM
inhibition of tumor volume (HepG2 tumor [14]): 25.98%
TUNEL-positive tumor cells (HepG2 tumor [15]): 18.9%
fraction showing rapid aggregation [16]: ~50%
Kd [17]: 247 nM
koff [17]: 5.27e-05 s⁻¹
kon [17]: 868 M⁻¹ s⁻¹
